Where a chain is given by its changes, count along the chain named.
Columns and labels:
human Claudin18.2 [1] = biological target: T1, human Claudin18.2 (Homo sapiens, UniProt P56856); test: Cell ELISA affinity before and after conjugation, L929-claudin 18.2 (human) cells; type: binding; conditions: FIG. 8A
T1 construct: expressed in transfected cells
Method: (§1) The cell binding affinity of the antibody before and after conjugation to the toxin was detected according to a method similar to that described in Example 2.2. L929-claudin 18.2 (human) or NUGC4 cells were digested with trypsin, collected by centrifugation, washed three times with pre-cooled PBS, resuspended, added to a 96-well plate at 5×10^4 cells/well, and incubated overnight. The cells were fixed with 4% paraformaldehyde and blocked with 2% BSA (in PBS) at 37° C. for 2 h. Each ADC drug or antibody subjected to gradient dilution was added, and the mixture was incubated at 37° C. for 2 h. […] A TMB substrate was added for color development, and after the reaction was stopped by 2 M HCl, OD450 nm values were read on a microplate reader.

[2] = test system: cynomolgus monkey Claudin18.2; test: FACS species affinity on HEK293T-Claudin18.2 (cynomolgus monkey) cells; type: binding; conditions: cell-based FACS
Method: The affinity of the anti-human Claudin18.2 humanized monoclonal antibodies for Claudin18.2 of different species was determined by flow cytometry (FACS). The experimental procedures were as follows: HEK293T-Claudin18.2 (cynomolgus monkey) cells, HEK293T-Claudin18.2 (mouse) cells and HEK293T-Claudin18.2 (rat) cells were digested, collected by centrifugation, washed three times with pre-cooled PBS, resuspended in 1% BSA (in PBS), and added to a 96-well pointed bottom plate at 3×10^5 cells/well. Each antibody subjected to gradient dilution was added, and the mixture was incubated at 4° C. for 1 h. The cells were washed three times with pre-cooled PBS, and then 1 μL of a fluorescent secondary antibody (APC: Biolegend-410712) was added to each well. The mixture was incubated at 4° C. for 0.5 h, and the cells were washed three times with pre-cooled PBS, then resuspended, and assayed on a flow cytometer.

[3] = test system: HEK293T-Claudin18.2 (human) cells; test: CDC activity, guinea pig serum killing experiment; type: cell-based; conditions: 20% guinea pig serum, 5 h
Method: CDC activity of the anti-human Claudin18.2 humanized monoclonal antibodies was detected by a guinea pig serum killing experiment. The experimental procedures were as follows: HEK293T-Claudin18.2 (human) cells were digested, collected by centrifugation, plated at 50000 cells/well, and incubated overnight. The supernatant was discarded, and 100 μL of each test antibody subjected to gradient dilution with DMEM+20% guinea pig serum (Beijing Bersee, BM361Y) was added to each well. The mixture was incubated at 37° C. for 5 h, and 20 μL of a CCK8 reagent (Suzhou Rhino Bio, QDY-003-D) was added to each well. The mixture was allowed to react for 1-4 h, and readings were taken at 450 nm on a microplate reader.

[4] = test system: HEK293T-Claudin18.2 (human) cells; test: ADCC activity, fluorescein reporter system (Jurkat-NFAT-CD16a); type: cell-based; conditions: HEK293T-Claudin18.2 (human) target cells, 5 h
Method: ADCC activity of the anti-human Claudin18.2 humanized monoclonal antibodies was detected by a fluorescein reporter system. The experiment was carried out using a Rhinogen® Bio-Glory One-Step Firefly Luciferase Assay kit (Suzhou Rhino Bio, RA-GL04), following the manufacturer's instructions. The experimental procedures were as follows: HEK293T-Claudin18.2 (human) cells were digested, collected by centrifugation, resuspended in DMEM+1% FBS, and then plated at 50000 cells/well. Jurkat-NFAT-CD16a cells were collected by centrifugation and resuspended in 1640+1% FBS, and then plated at 100000 cells/well. Each test antibody subjected to gradient dilution was added, and the mixture was incubated at 37° C. for 5 h. 50 μL of a Bio-Glory One-Step luciferase substrate was added to each well, and readings were taken on a microplate reader (MD, SpectraMax i3x).

human Claudin18.2 [5] = biological target: T1, human Claudin18.2; test: Cell-based ELISA affinity on NUGC4 cells endogenously expressing human Claudin18.2; type: binding; conditions: for NUCG4 Maximum signal value: OD450
human Claudin18.1 = biological target: T2, human Claudin18.1 (Homo sapiens, UniProt P56856); test: FACS specificity of humanized antibodies on HEK293T-Claudin18.1 (human) cells; type: binding; conditions: antibody 50 μg/mL, PE secondary antibody
T2 construct: expressed in transfected cells
Method: The specificity of the anti-human Claudin18.2 humanized monoclonal antibodies was determined by flow cytometry (FACS). The experimental procedures were as follows: HEK293T-Claudin18.1 (human) cells were digested, collected by centrifugation, washed three times with pre-cooled PBS, resuspended in 1% BSA (in PBS), and added to a 96-well pointed bottom plate at 3×10^5 cells/well. Each test antibody with a final concentration of 50 μg/mL was added, and the mixture was incubated at 4° C. for 1 h. The cells were washed three times with pre-cooled PBS, and then 1 μL of a fluorescent secondary antibody (APC: Biolegend-410712 or PE: BioLegend-410708) was added to each well. The mixture was incubated at 4° C. for 0.5 h, and the cells were washed three times with pre-cooled PBS, then resuspended, and assayed on a flow cytometer. For reference, anti-human Claudin18.1 positive control antibodies (positive control antibody-1 and positive control antibody-2) were included in the experiment.

human Claudin18.2 [6] = biological target: T1, human Claudin18.2; test: Cell ELISA affinity before and after conjugation, NUGC4 cells; type: binding; conditions: FIG. 8B
Method: as §1

human Claudin18.2 [7] = biological target: T1, human Claudin18.2; test: Cell-based FACS affinity on HEK293T-Claudin18.2 (human) cells; type: binding
Method: The affinity of the anti-human Claudin18.2 humanized antibodies was detected by flow cytometry. The experimental procedures were as follows: The adherent cultured HEK293T-Claudin18.2 (human), NUGC4-Claudin18.2 (human) and NUGC4 cells were digested, collected by centrifugation, and washed three times with pre-cooled PBS. The cells were resuspended in 1% BSA (in PBS) and added to a 96-well pointed bottom plate at 3×10^5 cells/well, with a volume of 50 μL per well. Each test antibody was diluted with 1% BSA (in PBS) (starting at 100 μg/mL, diluted in a 3-fold gradient, for 10 concentration points). The test antibody subjected to gradient dilution was added to the cells at 50 μL/well, and the mixture was well mixed and incubated at 4° C. for 1 h. The cells were collected by centrifugation, washed three times with pre-cooled PBS, and resuspended in 50 μL of 1% BSA (in PBS). 1 μL of a fluorescent secondary antibody (Biolegend-410712) was added to each well, and the mixture was well mixed and incubated at 4° C. for 0.5 h. The cells were collected by centrifugation, washed three times with pre-cooled PBS, resuspended in 200 μL of PBS, and assayed on a machine.

human Claudin18.2 [8] = biological target: T1, human Claudin18.2; test: Cell-based ELISA affinity of humanized antibodies on L929-Claudin18.2 (human) cells; type: binding; conditions: L929-Claudin18.2 cells

B1: 25C7A5-HZ1: humanized anti-Claudin18.2 antibody, VH SEQ ID NO: 1, VL SEQ ID NO: 2, human IgG1/Kappa constant regions (antibody, V domains shown)
VH: QVQLVQSGAEVKKPGSSVKVSCKASGYTFTNYWLHWVRQAPGQGLEWMGMMHPISGSSNYAQKFQGRATLTVDKSTSTAYMELSSLRSEDTAVYYCARGLLSAMDYWGQGTLVTVSS
VL: EIVLTQSPATLSLSPGERATLSCKASENVKTYVSWYQQKPGQSPRLLIYEASNRYTGVPARFSGSGSATDFTLTISSLEPEDFAVYFCGQTYSFPPTFGQGTKVEIK
modifications: human IgG1/kappa constant regions
In the case of B1, the “change in affinity for the cells before and after conjugation” value (shortened to “change in affinity”) (human Claudin18.2 [1]) is reported as “no significant changes in the affinity”, the “HEK293T-Claudin18.2 (cynomolgus monkey) EC50” value [2] is reported as 0.2398 mg/L and the “CDC activity EC50” value [3] is reported as 3.137 mg/L. The “ADCC activity EC50” value [4] was 0.04649 mg/L, the “NUCG4 EC50” value (human Claudin18.2 [5]) was 0.1012 mg/L and the “NUCG4 Maximum signal value” (human Claudin18.2 [5]) was 0.304. For the same molecule, the “Mean PE fluorescence signal value” (human Claudin18.1) was 583, the “Median PE fluorescence signal value” (human Claudin18.1) was 504 and the “Positive rate (%)” value (human Claudin18.1) was 0.54%. The “change in affinity” value (human Claudin18.2 [6]) was “no significant changes in the affinity”, the “HEK293T-Claudin18.2 EC50” value (human Claudin18.2 [7]) was 0.292 mg/L and the “HEK293T-Claudin18.2 Maximum signal value” (human Claudin18.2 [7]) was 113572. For the same molecule, the “Affinity detected by cell-based ELISA (EC50, ng/mL) L929-Claudin18.2” value (human Claudin18.2 [8]) was 13.41 ng/mL.

B2: 25C7A5-HZ2: humanized anti-Claudin18.2 antibody, VH SEQ ID NO: 3, VL SEQ ID NO: 2, human IgG1/Kappa constant regions (antibody, V domains shown)
VH: B1 VH with Q6E
VL: B1 VL
modifications: human IgG1/kappa constant regions
In the case of B2, the “change in affinity” value (human Claudin18.2 [1]) is reported as “no significant changes in the affinity”, the “HEK293T-Claudin18.2 (cynomolgus monkey) EC50” value [2] is reported as 0.2133 mg/L and the “CDC activity EC50” value [3] is reported as 3.283 mg/L. The “ADCC activity EC50” value [4] was 0.04875 mg/L, the “NUCG4 EC50” value (human Claudin18.2 [5]) was 0.1225 mg/L and the “NUCG4 Maximum signal value” (human Claudin18.2 [5]) was 0.313. For the same molecule, the “Mean PE fluorescence signal value” (human Claudin18.1) was 559, the “Median PE fluorescence signal value” (human Claudin18.1) was 471 and the “Positive rate (%)” value (human Claudin18.1) was 0.55%. The “change in affinity” value (human Claudin18.2 [6]) was “no significant changes in the affinity”, the “HEK293T-Claudin18.2 EC50” value (human Claudin18.2 [7]) was 0.2928 mg/L and the “HEK293T-Claudin18.2 Maximum signal value” (human Claudin18.2 [7]) was 119070. For the same molecule, the “Affinity detected by cell-based ELISA (EC50, ng/mL) L929-Claudin18.2” value (human Claudin18.2 [8]) was 14.80 ± 3.1(N = 2) ng/mL.

Source: US20260201030A1, “ANTIBODY, ANTIBODY-DRUG CONJUGATE THEREOF AND USE THEREOF” (EVOPOINT BIOSCIENCES CO., LTD., priority 2021, published 2026)
